Measurements published in patent US20230265151A1, “GIP/GLP1 CO-AGONIST COMPOUNDS” (priority 2020, published 2023).
*1 amine or outer side, *2 acyl side, *3 side chain or, on linkers, in order; H or OH if unused. Where no end group is shown, it is not given here. Side-chain parts run from the residue outwards. [ ]: non-standard residue; d: D form. The star is where a group is joined. Decanoyl(10-(4-HOOC-PhO)) = O=C(O)c1ccc(OCCCCCCCCCC(=O)*)cc1; αMePhe(2-F) = C[C@](N)(Cc1ccccc1F)C(=O)O; γGlu = O=C(O)[C@H](CCC(=O)[*:2])N[*:1]; αMeY = C[C@](N)(Cc1ccc(O)cc1)C(=O)O; αMeL = CC(C)C[C@](C)(N)C(=O)O; Nle = CCCC[C@H](N)C(=O)O; Orn = NCCC[C@H](N)C(=O)O; AEEA = NCCOCCOCC(=O)O; Aib = CC(C)(N)C(=O)O

T1: human GIP receptor (human, UniProt P48546 22-466)
T1 sequence (looked up): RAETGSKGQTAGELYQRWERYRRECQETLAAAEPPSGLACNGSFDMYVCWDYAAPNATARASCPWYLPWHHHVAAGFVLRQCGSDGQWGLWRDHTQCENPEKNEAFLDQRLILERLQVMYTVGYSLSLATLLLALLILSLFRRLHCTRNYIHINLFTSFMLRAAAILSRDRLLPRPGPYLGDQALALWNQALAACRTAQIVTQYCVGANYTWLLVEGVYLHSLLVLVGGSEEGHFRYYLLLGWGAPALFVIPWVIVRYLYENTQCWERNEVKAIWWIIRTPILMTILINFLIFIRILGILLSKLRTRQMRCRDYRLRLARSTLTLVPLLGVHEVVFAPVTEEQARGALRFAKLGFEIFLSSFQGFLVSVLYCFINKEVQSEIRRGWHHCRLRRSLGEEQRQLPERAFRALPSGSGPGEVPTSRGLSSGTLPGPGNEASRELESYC


What was measured:
Experiment in all cases: cell-based or functional assay
human GIP receptor = target: T1, human GIP receptor
human GLP-1 receptor = human GLP-1 receptor (human, UniProt P43220 24-463)
human glucagon receptor = human glucagon receptor (human, UniProt P47871 26-477)

| Binder | cAMP EC50 (1.0% HSA) (human GIP receptor) [nM] | cAMP EC50 (1.0% HSA) (human GLP-1 receptor) [nM] | cAMP EC50 (1.0% HSA) (human glucagon receptor) [nM] | cAMP Emax (1.0% HSA) (human GIP receptor) [%] | cAMP Emax (1.0% HSA) (human GLP-1 receptor) [%] |
| --- | --- | --- | --- | --- | --- |
| Y[Aib]EGT[αMePhe(2-F)]TSD[Nle]SI[αMeL]LD[Orn]IAQ[Aib]EFIK([AEEA-AEEA-γGlu-Decanoyl(10-(4-HOOC-PhO))])[αMeY]LIK([AEEA-AEEA-γGlu-Decanoyl(10-(4-HOOC-PhO))])GGPSSGAPPPS-NH2 [Example 314] | 3.51 | 38.6 | > 9950 |  |  |
| YXEGTXTSDXSIXLDXIAQXEFIKXLIKGGPSSGAPPPS (Y-Aib-EGT-αMeF(2F)-TSD-hTyr-SI-αMeL-LD-Orn-IAQ-Aib-EFIK((2-[2-(2-Amino-ethoxy)-ethoxy]-acetyl)2-(γ-Glu)-CO-(CH2)12-CO2H)-αMeY-LIK((2-[2-(2-Amino-ethoxy)-ethoxy]-acetyl)2-(γ-Glu)-CO-(CH2)12-CO2H)GGPSSGAPPPS-NH2) [Example 270] | 3.8 | 32.6 | > 9950 | 80.9 |  |
| YXEGTXTSDXSIXLDXKAQXEFIXXLIKGGPSSGAPPPS (Y-Aib-EGT-αMeF(2F)-TSD-2Nal-SI-αMeL-LD-Orn-K((2-[2-(2-Amino-ethoxy)-ethoxy]-acetyl)2-(γ-Glu)-(10-(4-carboxyphenoxy)decanoyl))AQ-Aib-EFI-(D-Glu)-αMeY-LIK((2-[2-(2-Amino-ethoxy)-ethoxy]-acetyl)2-(γ-Glu)-(10-(4-carboxyphenoxy)decanoyl))GGPSSGAPPPS-NH2) [Example 282] | 1.44 | 31.8 | > 9950 |  |  |
| YXEGTXTSDXSIXLDXKAQXEFIXXLIKGGPSSGAPPPS (Y-Aib-EGT-αMeF(2F)-TSD-OMeY-SI-αMeL-LD-Orn-K((2-[2-(2-Amino-ethoxy)-ethoxy]-acetyl)2-(γ-Glu)-(10-(4-carboxyphenoxy)decanoyl))AQ-Aib-EFI-(D-Glu)-αMeY-LIK((2-[2-(2-Amino-ethoxy)-ethoxy]-acetyl)2-(γ-Glu)-(10-(4-carboxyphenoxy)decanoyl))GGPSSGAPPPS-NH2) [Example 278] | 1.41 | 27 | > 9950 |  |  |
| YXEGTXTSDXXIXLDXIAQXEFIKXLIKGGPSSGAPPPS (Y-Aib-EGT-αMeF(2F)-TSD-4Pal-αMeS-I-αMeL-LD-Orn-IAQ-Aib-EFIK((2-[2-(2-Amino-ethoxy)-ethoxy]-acetyl)2-(γ-Glu)-(10-(4-carboxyphenoxy)decanoyl))-αMeY-LIK((2-[2-(2-Amino-ethoxy)-ethoxy]-acetyl)2-(γ-Glu)-(10-(4-carboxyphenoxy)decanoyl))GGPSSGAPPPS-NH2) [Example 306] | 1.12 | 18.2 | > 9950 |  |  |
| YXEGTXTSDXSIXLDXIAQXEFIKXLIKGGPSSGAPPPS (Y-Aib-EGT-αMeF(2F)-TSD-OMeY-SI-αMeL-LD-Orn-IAQ-Aib-EFIK((2-[2-(2-Amino-ethoxy)-ethoxy]-acetyl)2-(γ-Glu)-(10-(4-carboxyphenoxy)decanoyl))-αMeY-LIK((2-[2-(2-Amino-ethoxy)-ethoxy]-acetyl)2-(γ-Glu)-(10-(4-carboxyphenoxy)decanoyl))GGPSSGAPPPS-NH2) [Example 279] | 3.21 | 36.6 | > 9950 |  |  |
| YXEGTXTSDXSIXLDXKAQXKFIXXLIEGGPSSGAPPPS (Y-Aib-EGT-αMeF(2F)-TSD-OMeY-SI-αMeL-LD-Orn-K((2-[2-(2-Amino-ethoxy)-ethoxy]-acetyl)2-(γ-Glu)-(10-(4-carboxyphenoxy)decanoyl))AQ-Aib-K((2-[2-(2-Amino-ethoxy)-ethoxy]-acetyl)2-(γ-Glu)-(10-(4-carboxyphenoxy)decanoyl))FI-(D-Glu)-αMeY-LIEGGPSSGAPPPS-NH2) [Example 277] | 0.962 | 12.2 | > 9950 |  |  |
| YXEGTXTSDXSIXLDXKAQXKFIXXLIEGGPSSGAPPPS (Y-Aib-EGT-αMeF(2F)-TSD-Nle-SI-αMeL-LD-Orn-K((2-[2-(2-Amino-ethoxy)-ethoxy]-acetyl)2-CO-(CH2)12-CO2H)AQ-Aib-K((2-[2-(2-Amino-ethoxy)-ethoxy]-acetyl)2-CO-(CH2)12-CO2H)FI-(D-Glu)-αMeY-LIEGGPSSGAPPPS-NH2) [Example 271] | 0.767 | 10.2 | > 9950 |  |  |
| YXEGTXTSDXSIXLDXIAQXEFIKXLIKGGPSSGAPPPS (Y-Aib-EGT-αMeF(2F)-TSD-4Pa1-SI-αMeL-LD-Orn-IAQ-Aib-EFIK((2-[2-(2-Amino-ethoxy)-ethoxy]-acetyl)2-(γ-Glu)-(10-(4-carboxyphenoxy)decanoyl))-αMeY-LIK((2-[2-(2-Amino-ethoxy)-ethoxy]-acetyl)2-(γ-Glu)-(10-(4-carboxyphenoxy)decanoyl))GGPSSGAPPPS-NH2) [Example 274] | 1.16 | 32.9 | > 9950 |  |  |
| YXEGTXTSDYXIXLDXIAQXEFIKXLIKGGPSSGAPPPS (Y-Aib-EGT-αMeF(2F)-TSDY-αMeS-I-αMeL-LD-Orn-IAQ-Aib-EFIK((2-[2-(2-Amino-ethoxy)-ethoxy]-acetyl)2-(γ-Glu)-CO-(CH2)12-CO2H)-αMeY-LIK((2-[2-(2-Amino-ethoxy)-ethoxy]-acetyl)2-(γ-Glu)-CO-(CH2)12-CO2H)GGPSSGAPPPS-NH2) [Example 303] | 2 | 50.4 | > 9950 | 89.8 |  |
| YXEGTXTSDXSIXLDXIAQXKFIXXLIKGGPSSGAPPPS (Y-Aib-EGT-αMeF(2F)-TSD-OMeY-SI-αMeL-LD-Orn-IAQ-Aib-K((2-[2-(2-Amino-ethoxy)-ethoxy]-acetyl)2-(γ-Glu)-(10-(4-carboxyphenoxy)decanoyl))FI-(D-Glu)-αMeY-LIK((2-[2-(2-Amino-ethoxy)-ethoxy]-acetyl)2-(γ-Glu)-(10-(4-carboxyphenoxy)decanoyl))GGPSSGAPPPS-NH2) [Example 280] | 4.84 | 49.9 | > 9950 | 88.5 |  |
| YXEGTXTSDXSIXLDXKAQXKFIXXLIEGGPSSGAPPPS (Y-Aib-EGT-αMeF(2F)-TSD-2Nal-SI-αMeL-LD-Orn-K((2-[2-(2-Amino-ethoxy)-ethoxy]-acetyl)2-(γ-Glu)-(10-(4-carboxyphenoxy)decanoyl))AQ-Aib-K((2-[2-(2-Amino-ethoxy)-ethoxy]-acetyl)2-(γ-Glu)-(10-(4-carboxyphenoxy)decanoyl))FI-(D-Glu)-αMeY-LIEGGPSSGAPPPS-NH2) [Example 281] | 1.87 | 22.4 | > 9950 |  |  |
| YXEGTXTSDXSIXLDXKAQXKFIXXLIEGGPSSGAPPPS (Y-Aib-EGT-αMeF(2F)-TSD-hTyr-SI-αMeL-LD-Orn-K((2-[2-(2-Amino-ethoxy)-ethoxy]-acetyl)2-CO-(CH2)12-CO2H)AQ-Aib-K((2-[2-(2-Amino-ethoxy)-ethoxy]-acetyl)2-CO-(CH2)12-CO2H)FI-(D-Glu)-αMeY-LIEGGPSSGAPPPS-NH2 …) [Example 272] | 0.561 | 4.72 | > 9950 | 81.2 |  |
| YXEGTXTSDXSIXLDXIAQXKFIXXLIKGGPSSGAPPPS (Y-Aib-EGT-αMeF(2F)-TSD-4Pal-SI-αMeL-LD-Orn-IAQ-Aib-K(2-[2-(2-Amino-ethoxy)-ethoxy]-acetyl)2-(γ-Glu)-(11-(4-carboxyphenoxy)undecanoyl)FI-(D-Glu)-αMeY-LIK((2-[2-(2-Amino-ethoxy)-ethoxy]-acetyl)2-(γ-Glu)-(11-(4-carboxyphenoxy)undecanoyl)GGPSSGAPPPS-NH2)) [Example 287] | 3.76 | 83.8 | > 9950 |  |  |
| YXEGTXTSDXSIXLDXKAQXKFIXXLIEGGPSSGAPPPS (Y-Aib-EGT-αMeF(2F)-TSD-OMeY-SI-αMeL-LD-Orn-K((2-[2-(2-Amino-ethoxy)-ethoxy]-acetyl)2-(γ-Glu)-CO-(CH2)10-CH3)AQ-Aib-K((2-[2-(2-Amino-ethoxy)-ethoxy]-acetyl)2-(γ-Glu)-CO-(CH2)10-CH3)FI-(D-Glu)-αMeY-LIEGGPSSGAPPPS-NH2) [Example 289] | 3.11 | 627 | > 9950 |  | 170 |
